Laboratory results published in article PMC2654920, “Borrelia recurrentis Employs a Novel Multifunctional Surface Protein with Anti-Complement, Anti-Opsonic and Invasive Potential to Escape Innate Immunity” (PLoS ONE, 2009).

Assays:
[1] = molecular target: T1, human complement factor H (human, UniProt P08603 19-1231); test: ELISA; competition inhibition assay: HcpA (2 µg/ml) coated; constant CFH (3 µg/ml in the methods, 2 µg/ml in the results) with PLG 0.001-100 µg/ml, or constant PLG (10 µg/ml) with CFH 0.001-100 µg/ml; details: both partners purified
T1 construct: complement factor H, human, 20 short consensus repeats (SCRs); purified protein or as present in normal human serum; purified human factor H of Calbiochem is the only one named; also called CFH; source: bought: Calbiochem (purified human factor H); also in normal human serum

recombinant CFHR-1 = molecular target: T2, recombinant CFHR-1 (human, UniProt Q03591 19-330); test: far-Western, overlay or dot blot; ligand affinity blot: purified recombinant HcpA separated by SDS-PAGE, on nitrocellulose strips, incubated with recombinant CFHL-1, CFH deletion constructs or recombinant CFHR-1; anti-CFH immune serum, mAb JHD7 or JHD8; details: both partners purified
T2 construct: complement factor H-related protein 1, human, recombinant; also called CFH-related protein 1
T2 sequence: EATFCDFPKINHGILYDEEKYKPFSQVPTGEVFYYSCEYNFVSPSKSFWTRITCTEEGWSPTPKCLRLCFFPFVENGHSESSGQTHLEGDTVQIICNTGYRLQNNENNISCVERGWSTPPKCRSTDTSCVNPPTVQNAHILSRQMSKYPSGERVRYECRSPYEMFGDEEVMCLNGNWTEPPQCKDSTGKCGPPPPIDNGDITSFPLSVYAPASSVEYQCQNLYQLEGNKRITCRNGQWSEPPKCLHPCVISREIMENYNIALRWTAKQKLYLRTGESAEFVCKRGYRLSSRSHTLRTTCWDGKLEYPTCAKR

B1: recombinant full-length HcpA (residues 18 to 175) of B. recurrentis A1 (domain or fragment)
chain: LLSKNANLQPKTLETLESNIDDGQKQALAFFQESLQDNKHLDALKQAQSALLKDIKDKPQKTLNFKYNKTKLEQLFRKLGNDKTKQFLKNLHVTIKFINNGSFQSFSSANFNDLDTLEKKQERAINSIKEELYVNYYLYTNELVDLDYFFYRAMNYLS
notes: HcpA, surface lipoprotein of B. recurrentis A1, residues 18-175, lacking the hydrophobic leader peptide; cloned into pQE-30Xa with primers BrBam and BrSal; also called intact HcpA; source: E. coli JM109, purified as recommended by the manufacturer (Qiagen); not shown: His6, N-terminal, kept
B1: binds [1]; binds (recombinant CFHR-1).
